# Data taken from patent US11866760B2, “Microorganisms for the production of insect pheromones and related compounds” (Provivi, Inc., priority 2017, dated 2024).
# Residue numbers refer to the chain shown, from its start. Numbers in names are those of the source.
# B1: A. transitella desaturase: Amyelois transitella Z11 desaturase (JX964774) (protein, listed as Amyelois transitella)
# chain: MVPNKGSSDVLSEHSEPQFTKLIAPQAGPRKYKIVYRNLLTFGYWHLSAVYGLYLCFTCAKWATILFAFFLYVIAEIGITGGAHRLWAHRTYKAKLPLEILLLIMNSIAFQDTAFTWARDHRLHHKYSDTDADPHNATRGFFYSHVGWLLVKKHPEVKARGKYLSLDDLKNNPLLKFQKKYAILVIGTLCFLMPTFVPVYFWGEGISTAWNINLLRYVMNLNMTFLVNSAAHIFGNKPYDKSIASVQNISVSLATFGEGFHNYHHTYPWDYRAAELGNNRLNMTTAFIDFFAWIGWAYDLKSVPQEAIAKRCAKTGDGTDMWGRKR
# B2: HaFAR (S60A) (protein)
# chain: MVVLTSKETKPSVAEFYAGKSVFITGGTGFLGKVFIEKLLYSCPDIENIYMLIREKKGLAVSERIKQFLDDPLFTRLKDKRPADLEKIVLIPGDITAPDLGINSENEKMLIEKVSVIIHSAATVKFNEPLPTAWKINVEGTRMMLALSRRMKRIEVFIHISTAYTNTNREVVDEILYPAPADIDQVHQYVKDGISEEDTEKILNGRPNTYTFTKALTEHLVAENQAYVPTIIVRPSVVAAIKDEPLKGWLGNWFGATGLTVFTAKGLNRVIYGHSSYIVDLIPVDYVANLVIAAGAKSSKSTELKVYNCCSSSCNPVTIGTLMSMFADDAIKQKSYAMPLPGWYIFTKYKWLVLLLTFLFQVIPAYVTDLSRHLIGKSPRYIKLQSLVNQTRSSIDFFTNHSWVMKADRVRELYASLSPADKYLFPCDPTDINWTHYIQDYCWGVRHFLEKKSYE
# B3: HaFAR (S298A) (protein)
# chain: B2 chain with A60S, S298A
# B4: HaFAR (S453A) (protein)
# chain: B2 chain with A60S, S453A
# Assays:
# palmitic acid = experiment: in vivo bioconversion assay of desaturases in C. tropicalis SPV053; format: cell-based, Candida tropicalis
# Protocol: Functional expression of the heterologous desaturases was characterized by a series of in vivo bioconversion experiments. C. tropicalis SPV053 derived stains expressing insect desaturases were cultured in rich (YPD) or defined (CM glucose) media supplemented with ethanol (for induction) and saturated acid substrates (palmitic acid, methyl palmitate, methyl myristate). Small scale (2 ml) cultures were cultivated for a total of 72 hours in 24 deep well plates with substrate added after the initial 24 hours.
# Positive isolates were re-patched onto YPD+300 μg/ml Zeocin and grown overnight and then stored at 4° C. Strains were inoculated from patch plates into 2 ml of YPD in 24 deep well plates (square well, pyramid bottom). Three positive clones were inoculated for each desaturase variant and the mCherry expressing control strain. Deep well plates were incubated at 30° C., 1000 rpm, and 80% humidity in the Infors HT Multitron Pro plate shaker for 24 hrs. After 24 hrs of incubation, cultures were split into equal 1 ml volumes to make two sets of identical plates. Both sets of plates were pelleted by centrifugation at 500×g. One set of plates was resuspended in 2 ml of YPD+0.3% (v/v) ethanol and the second set was resuspended in 2 ml of CM glucose+0.3% ethanol. Ethanol was added at this stage to induce recombinant enzyme expression from the ICL promoter. Cultures were incubated for another 24 hours under the same conditions before 300 mg/L palmitic acid was added to cultures from a 90 g/L stock solution in ethanol. The result was the addition of a fresh 0.3% ethanol in conjunction with the palmitic acid. A subset of strains was also cultured without palmitic acid addition. These cultures had 0.3% ethanol added instead. All cultures were incubated for an additional 24 hrs before a final addition of 0.3% ethanol. After another 24 hr period of incubation, 1.5 ml of each culture was harvested in 1.7 ml microcentrifuge tubes and pelleted. Supernatant was saved in fresh tubes and pellets were processed as described below. A subset of supernatant samples was also extracted to look for free acid in the extracellular medium.
# The mCherry control and confirmed positive variants were rescreened using both palmitic acid and methyl palmitate as substrates. The culturing was conducted as described above with equimolar (1.17 mM) amounts of substrate added from ethanol stock solutions (methyl palmitate 94 g/L stock, 313 mg/L final concentration). The same protocol was also repeated with the full panel of strains using an 84 g/L stock of methyl myristate (C14:0). The final concentration of substrate was again 1.17 mM.
# The in vivo bioconversion assay was scaled up for confirmation of (Z)-11-hexadecenoic acid synthesis. 2 ml YPD seed cultures of strains SPV0302, SPV0303, and SPV0304 (mCherry), […], SPV0305, and SPV0306 (A. transitella Z11 desaturase), and SPV0307, SPV0308, and SPV0309 (H. zea Z11 desaturase) were grown overnight at 30° C., 1000 rpm, 80% humidity in the Infors HT Multitron plate shaker. 200 μl of overnight culture from each of the three clonal isolates was pooled and inoculated into a single 125 ml baffled flask containing 20 ml YPD. The resulting three flasks were grown for 24 hrs at 30° C. and 250 rpm (Infors Flask shaker). Cultures were pelleted by centrifugation at 500×g and resuspended in 20 ml of YPD+0.3% (v/v) ethanol and returned to 125 ml baffled shake flasks. Cultures were incubated for an additional 24 hours before addition of 300 mg/L palmitic acid in a 90 g/L stock in ethanol (221 μl per flask). After 24 hours of incubation another 0.3% (v/v) ethanol (221 μl) was added to each flask for sustained induction. Flasks were incubated for an additional 24 hours before cells were harvested for FAME analysis and DMDS derivatization.
# Total lipid composition as well as the (Z)-11-hexadecenoic acid quantification was based on modified procedures by Moss et al. (1982) and Yousuf et al (2010). […]
# S. cerevisiae ΔOLE1 = experiment: ΔOLE1 growth complementation assay without UFA; format: cell-based, Saccharomyces cerevisiae
# Description: S. cerevisiae ΔOLE1 (MATA OLE1::LEU2 ura3-52 his4) was used as an expression host. A synthetic expression cassette termed pOLE1 (FIG. 10, SEQ ID NO: 4) which comprises the OLE1 promoter region (SEQ ID NOs: 5 and 6), nucleotides encoding for 27 N-terminal amino acids of the OLE1 leader sequence (SEQ ID NO: 7), and a VPS13 terminator sequence (SEQ ID NO: 8) was created, and cloned into pESC-URA vector in between SacI and EcoRI sites. To test the functionality of the pOLE1 cassette, Dasher GFP synthon was inserted in between SpeI and NotI sites to create pOLE1-GFP plasmid. Competent ΔOLE1 was transformed with pOLE1-GFP, and plated on CM-Ura glucose agar plate (Teknova) containing UFA (20 mm CM-URA glucose agar plate was coated with 100 μL CM-Ura glucose medium containing 1% tergitol, and 3 μL palmitoleic acid). […] Validation of ΔOLE1 complementation was performed by restoring OLE1 activity. Specifically, native S. cerevisiae OLE1 synthon was inserted into pOLE1 cassette devoid of the leader sequence to create pOLE1-OLE1 plasmid. After transformation of ΔOLE1, and selection on CM-Ura glucose agar containing UFA, single colonies were patched onto YPD and CM-Ura glucose without UFA. After incubation at 30° C. for 5 days, growth was observed (FIG. 11A-FIG. 11E). As expected, Dasher GFP expression could not complement ΔOLE1 growth without UFA (FIG. 11A-FIG. 11E). DNA sequences which encode for desaturase variants were synthesized (to include nucleotide changes which remove restriction sites used for cloning purposes), and cloned into pOLE1 using SpeI-NotI sites (Genscript, SEQ ID NOs: 9-13). Complementation assay of ΔOLE1 with insect desaturases were performed in the same way as with OLE1 desaturase.
# methyl palmitate = experiment: HaFAR mutant library cultivation in 24 well plates in Y. lipolytica SPV603; format: cell-based, Yarrowia lipolytica; conditions: second FAR copy in SPV603, 24 well plates
# Protocol: Four individual clones of positive integrants were tested. Cultivation was performed in 24 well plates. Briefly, 2 mL YPD was inoculated from patches of individual clones and incubated for 24 h at 28° C., 1000 rpm. After 24 h OD600 was measured and the cells were centrifuged at 1000 rpm (Table 23). The cell pellets were resuspended in 1 mL S2 media and 10 g/L methyl palmitate was added. The cells were incubated for 18 h at 28° C., 1000 rpm. Cultivations were stored at −20° C. until analyzed. Extraction and analysis was performed according to previously established standard protocols using GC-FID.
# In a first round four individual isolate from each transformation was tested. Cultivation was performed in 24 well plates. 2 mL YPD was inoculated from patches of individual clones and incubated for 24 h at 28° C., 1000 rpm. After 24 h OD600 was measured and the cells were centrifuged at 1000 rpm. The cell pellets were resuspended in 1 mL S2 media and 10 g/L methyl palmitate was added. The cells were incubated for 24 h at 28° C., 1000 rpm. Cultivations were stored at −20° C. until analyzed. Next, four clones of the best performing positive integrant were tested. Cultivation was performed in 24 well plates. 2 mL YPD was inoculated from patches of individual clones and incubated for ˜28 h at 28° C., 1000 rpm. After 28 h OD600 was measured and the cells were centrifuged at 1000 rpm. The cell pellets were resuspended in 1 mL S2 media and 10 g/L methyl palmitate was added. The cells were incubated for 18 h at 28° C., 1000 rpm. Cultivations were stored at −20° C. until analyzed.
# Cell pellets were resuspended with 500 μL 5% NaOH (in methanol) then heated for 1 hour at 85° C. Samples were cooled down and then acidified by adding 400 μL 5N HCl. Next, 500 μL chloroform (containing 1 mM C17:0 heptadecanoate internal standard) were added to samples. Samples were mixed vigorously then spun down for 2 minutes at 13,000 RPM using a table top centrifuge. 450 μL chloroform were transferred to a new vial then evaporated at 85° C. for ˜15 minutes. Samples were then resuspended in 50 μL BSTFA (and were now ready for GC analysis). After analysis of the fatty alcohols samples were diluted ˜1:10 and rerun on the GC to improve peak separation of the fatty acid peaks.
# All quantifications were based on the concentration of the internal standard. The concentration of the internal standard C17ME is 1 mM. The final concentration of fatty alcohols as well as fatty acids were calculated based on the effective carbon number compared to the internal standard.
# [1] = SPV053, supplementation not stated
molecule,measurement,setting,value
B1,(Z)-11-hexadecenoic acid titer,palmitic acid; SPV053,approximately 5.62 mg/L
same,activity on myristoyl-CoA,"palmitic acid; SPV053, methyl myristate substrate",some activity on myristoyl-CoA
same,(Z)-9-hexadecenoic acid in C16-fatty acid composition,palmitic acid; [1],14.5%
same,(Z)-11-hexadecenoic acid in C16-fatty acid composition,palmitic acid; [1],30.0%
same,hexadecanoic acid in C16-fatty acid composition,palmitic acid; [1],55.5%
same,rescue of ΔOLE1 growth without UFA,S. cerevisiae ΔOLE1; minimal medium (CM-Ura glucose) agar plate,conferred growth without UFA
same,rescue of ΔOLE1 growth without UFA,S. cerevisiae ΔOLE1; rich medium (YPD) agar plate,conferred growth without UFA
B2,Z11-16OH titers compared to the HaFAR double copy strain,methyl palmitate,neutral or showed slight increases
B3,Z11-16OH titers compared to the HaFAR double copy strain,methyl palmitate,neutral or showed slight increases
B4,Z11-16OH titers compared to the HaFAR double copy strain,methyl palmitate,neutral or showed slight increases
